± gives the uncertainty stated by the source.

Among the data in the Human Domainome abundance scans (Beltran et al. 2025) are abundance fitness values, retold here.

The chains are these.
B1: Zinc finger MYM-type protein 3, residues 589 to 668; numbered along this chain, Q14202 (parent)
chain: LSCHYCHSLFSGKPEVLDWQDQVFQFCCRDCCEDFKRLRGVVSQCEHCRQEKLLHEKLRFSGVEKSFCSEGCVLLYKQDF

Variants of B1 are the subject of the data set. The data set is described as follows: abundance fitness (aPCA) (normalised: wild type 0, dead -1); higher = more abundant; growth selection in yeast, the domain comes from the species named. Particulars: Homo sapiens.
Take L58S: the abundance fitness is -0.254 ± 0.17.

With L58R, the abundance fitness stood at 0.148 ± 0.08.

Regarding L58A, the abundance fitness amounted to 0.158 ± 0.089.

As to C3P, the abundance fitness was -1.06 ± 0.12.

For the variant C3S, the abundance fitness was -1.06 ± 0.098.

On to C3G, for which the abundance fitness is -1.01 ± 0.088.

As for C3L, the abundance fitness is -0.896 ± 0.065.

As for C3Y, the abundance fitness is -0.984 ± 0.18.

Regarding C3F, the abundance fitness was -0.63 ± 0.11.

C3M: the abundance fitness was -0.505 ± 0.077.

As for C3K, the abundance fitness is -0.837 ± 0.097.

As to L54S, the abundance fitness is -0.542 ± 0.16.

On to L54I, for which the abundance fitness stood at 0.201 ± 0.23.

Take R39L: the abundance fitness was -0.282 ± 0.32.

Consider R49M, for which the abundance fitness is -0.482 ± 0.5.

R49W: the abundance fitness was -0.327 ± 0.27.

On to S2H, for which the abundance fitness is 0.281 ± 0.055.

As for S2E, the abundance fitness was 0.159 ± 0.058.

With S2A, the abundance fitness was found to be 0.106 ± 0.051.

Regarding S2K, the abundance fitness stood at 0.354 ± 0.045.

For E64W, the abundance fitness was -0.176 ± 0.22.

Regarding E64T, the abundance fitness was -0.238 ± 0.31.

Regarding E64A, the abundance fitness is -0.571 ± 0.23.

In the case of C27H, the abundance fitness was -0.517 ± 0.11.

Consider C27D, for which the abundance fitness is -0.352 ± 0.078.

As to C27W, the abundance fitness is -0.859 ± 0.072.

As for C27G, the abundance fitness was -0.572 ± 0.048.

C27E: the abundance fitness was -0.721 ± 0.062.

Take C27P: the abundance fitness is -0.483 ± 0.062.

Turning to L9P, the abundance fitness came out at 0.15 ± 0.049.

As for L53K, the abundance fitness turned out to be 0.187 ± 0.34.

Consider L53S, for which the abundance fitness is -0.154 ± 0.13.

For the variant L53M, the abundance fitness is -0.234 ± 0.23.

Regarding Y76D, the abundance fitness is -0.176 ± 0.17.

As to Y76V, the abundance fitness was -0.317 ± 0.14.

On to Y76G, for which the abundance fitness is -0.28 ± 0.098.

In the case of Y76E, the abundance fitness is -0.107 ± 0.11.

For K13I, the abundance fitness is -0.098 ± 0.083.

Turning to K13N, the abundance fitness was -0.198 ± 0.13.

K13D: the abundance fitness was 0.019 ± 0.068.

K13P: the abundance fitness is 0.042 ± 0.059.

Take K13H: the abundance fitness is -0.043 ± 0.077.

As for C68G, the abundance fitness is -0.88 ± 0.15.

Take C68A: the abundance fitness was -0.93 ± 0.23.

In the case of V16M, the abundance fitness came out at 0.022 ± 0.064.

For V16S, the abundance fitness was 0.011 ± 0.049.

Regarding V16D, the abundance fitness is -0.702 ± 0.2.

Consider V16C, for which the abundance fitness is -0.003 ± 0.063.

Consider V16E, for which the abundance fitness was -0.072 ± 0.049.

With V16W, the abundance fitness was -0.206 ± 0.055.

On to F35C, for which the abundance fitness was -0.467 ± 0.082.

For the variant F35A, the abundance fitness is -0.079 ± 0.041.

For the variant F35D, the abundance fitness is -0.549 ± 0.092.

In the case of V23G, the abundance fitness was -0.003 ± 0.042.

In the case of V23C, the abundance fitness is 0.236 ± 0.046.

V23K: the abundance fitness was 0.268 ± 0.055.

Consider V23L, for which the abundance fitness worked out at 0.155 ± 0.04.

Consider G12F, for which the abundance fitness is -0.384 ± 0.065.

G12E: the abundance fitness turned out to be 0.034 ± 0.046.

Regarding G12C, the abundance fitness was -0.272 ± 0.067.

In the case of G12M, the abundance fitness was -0.143 ± 0.049.

For the variant G12A, the abundance fitness amounted to 0.013 ± 0.039.

For G12P, the abundance fitness is -0.227 ± 0.05.

For G12R, the abundance fitness is -0.145 ± 0.04.

With G12Q, the abundance fitness is -0.003 ± 0.048.

With H55A, the abundance fitness is -0.286 ± 0.14.

On to H55D, for which the abundance fitness is 0.35 ± 0.49.

Take H55F: the abundance fitness worked out at 0.109 ± 0.12.

Regarding R59T, the abundance fitness was determined as 0.631 ± 0.14.

Regarding R59C, the abundance fitness came out at 0.514 ± 0.18.

For R59W, the abundance fitness worked out at 0.336 ± 0.14.

As for R59V, the abundance fitness came to 0.306 ± 0.12.

In the case of R59S, the abundance fitness is 0.541 ± 0.13.

Consider W19C, for which the abundance fitness was found to be 0.276 ± 0.05.

As for W19Y, the abundance fitness was determined as 0.269 ± 0.075.

As to W19N, the abundance fitness is 0.225 ± 0.1.

Regarding W19S, the abundance fitness turned out to be 0.365 ± 0.042.

Take W19D: the abundance fitness is -0.035 ± 0.16.

As to W19K, the abundance fitness is 0.183 ± 0.048.

Take W19I: the abundance fitness came to 0.234 ± 0.13.

As for F67L, the abundance fitness was -0.852 ± 0.21.

F67T: the abundance fitness was -0.614 ± 0.18.

Turning to F67E, the abundance fitness was -0.626 ± 0.18.

On to F67Q, for which the abundance fitness was -0.338 ± 0.14.

For the variant E70T, the abundance fitness was -0.048 ± 0.21.

Take E70W: the abundance fitness was -0.918 ± 0.4.

As to E70A, the abundance fitness was -0.096 ± 0.15.

With S43Q, the abundance fitness is -0.339 ± 0.18.

As to S43A, the abundance fitness was -0.076 ± 0.097.

For the variant S43L, the abundance fitness is -0.576 ± 0.19.

Take S43P: the abundance fitness was -0.496 ± 0.3.

On to S43D, for which the abundance fitness was -0.235 ± 0.23.

Regarding S43R, the abundance fitness was -0.174 ± 0.1.

Take E51C: the abundance fitness worked out at 0.227 ± 0.23.

Consider E51P, for which the abundance fitness worked out at 0.127 ± 0.16.

Take E51L: the abundance fitness was -0.119 ± 0.12.

E51G: the abundance fitness is -0.393 ± 0.12.

Take E51T: the abundance fitness is -0.096 ± 0.18.

As for Q20A, the abundance fitness is 0.265 ± 0.051.

On to Q20S, for which the abundance fitness was found to be 0.245 ± 0.047.

As to Q20F, the abundance fitness turned out to be 0.198 ± 0.1.

As for Q20K, the abundance fitness is 0.456 ± 0.052.

On to G62V, for which the abundance fitness is -0.8 ± 0.33.

Regarding G62E, the abundance fitness worked out at 0.013 ± 0.19.

In the case of G62W, the abundance fitness was -0.85 ± 0.22.

With Q78P, the abundance fitness is -0.595 ± 0.21.

As for Q78G, the abundance fitness was -0.292 ± 0.1.

In the case of Q78M, the abundance fitness is -0.372 ± 0.26.

As to Q78L, the abundance fitness came out at 0.466 ± 0.12.

With Q78T, the abundance fitness was -0.188 ± 0.17.

Consider Q78H, for which the abundance fitness worked out at 0.565 ± 0.25.

For Q78I, the abundance fitness was -0.34 ± 0.42.

F60V: the abundance fitness was found to be 0.204 ± 0.093.

With F60E, the abundance fitness was determined as 0.256 ± 0.1.

Regarding F60M, the abundance fitness stood at 0.079 ± 0.27.

F60T: the abundance fitness is -0.975 ± 0.46.

F60A: the abundance fitness was -0.034 ± 0.11.

Regarding F60P, the abundance fitness is 0.113 ± 0.13.

In the case of F60R, the abundance fitness is -0.327 ± 0.12.

Take F60S: the abundance fitness amounted to 0.059 ± 0.12.

As for S66P, the abundance fitness was -0.834 ± 0.32.

For S66T, the abundance fitness was -0.617 ± 0.28.

In the case of S66M, the abundance fitness is -0.002 ± 0.28.

For S66G, the abundance fitness is -0.392 ± 0.12.

S66A: the abundance fitness is -0.222 ± 0.15.

Consider S66Y, for which the abundance fitness was determined as 0.382 ± 0.16.

As to Q25G, the abundance fitness was 0.088 ± 0.039.

As for Q25C, the abundance fitness is -0.081 ± 0.062.

As to Q25K, the abundance fitness is 0.113 ± 0.05.

On to Q25W, for which the abundance fitness is 0.033 ± 0.046.

For the variant Q25Y, the abundance fitness stood at 0.025 ± 0.059.

Q25E: the abundance fitness is 0.226 ± 0.043.

On to Q25D, for which the abundance fitness is 0.085 ± 0.056.

As to E56V, the abundance fitness amounted to 0.548 ± 0.082.

As to E56C, the abundance fitness was -0.041 ± 0.32.

On to E56Y, for which the abundance fitness is -0.01 ± 0.5.

Take E56S: the abundance fitness is -0.299 ± 0.16.

On to E56T, for which the abundance fitness is -0.091 ± 0.29.

Regarding E56R, the abundance fitness was -0.006 ± 0.084.

As to E56P, the abundance fitness was -0.288 ± 0.26.

Turning to K77L, the abundance fitness was -0.304 ± 0.18.

Take K77F: the abundance fitness is -0.394 ± 0.39.

For the variant K77S, the abundance fitness is -0.495 ± 0.23.

As to S11C, the abundance fitness was -0.512 ± 0.08.

On to S11A, for which the abundance fitness is -0.374 ± 0.047.

For S11L, the abundance fitness was -0.374 ± 0.048.

With D34Y, the abundance fitness is 0.105 ± 0.083.

On to D34V, for which the abundance fitness is -0.079 ± 0.058.

With V42Q, the abundance fitness was -0.203 ± 0.24.

Consider V42T, for which the abundance fitness was 0.388 ± 0.12.

Take L1W: the abundance fitness was -0.641 ± 0.079.

As for L1P, the abundance fitness is -0.436 ± 0.34.

As for L1K, the abundance fitness was determined as 0.016 ± 0.069.

For the variant L1R, the abundance fitness is -0.439 ± 0.076.

Turning to L1G, the abundance fitness is -0.034 ± 0.056.

As to L1A, the abundance fitness is -0.012 ± 0.16.

Turning to L1I, the abundance fitness stood at 0.363 ± 0.071.

On to K36L, for which the abundance fitness is -0.101 ± 0.041.

As to K36S, the abundance fitness was -0.048 ± 0.042.

K36R: the abundance fitness is -0.077 ± 0.038.

On to K36E, for which the abundance fitness was -0.01 ± 0.044.

As for K36T, the abundance fitness was -0.011 ± 0.053.

On to K36C, for which the abundance fitness was -0.294 ± 0.06.

Take K36N: the abundance fitness is -0.251 ± 0.073.

In the case of Q22C, the abundance fitness came to 0.117 ± 0.058.

Regarding Q22E, the abundance fitness was found to be 0.313 ± 0.047.

Regarding Q22P, the abundance fitness was -0.071 ± 0.05.
